Here are results for 3 molecules from US20200087416A1.

The target in assay [1] is cynomolgus PCSK-9 (cynomolgus). Put plainly: BLI (ForteBio), IgG on AHQ sensor, 100 nM antigen.
The target in assay [2] is cynomolgus PCSK-9 (cynomolgus). In words: MSD-SET, Fab with biotin-PCSK9 in solution, IgG on plate, pH 7.4.
Assay [3] has as its target human PCSK9 (PCSK9 antigen, SEQ ID NO. 53) (human). Put plainly: MSD-SET, Fab with biotin-PCSK9 in solution, IgG on plate, pH 6.0.
Assay [4] shares this target. Put plainly: MSD-SET, Fab with biotin-PCSK9 in solution, IgG on plate, pH 7.4.
A further assay deals with murine PCSK-9 (murine) (UniProt Q80W65). The assay is described as above.

B1: Lodelcizumab (antibody, INN chains, looked up, V domains shown)
VH: QVQLVQSGAEVKKPGASVKVSCKASGYTFSTMYMSWVRQAPGQGLEWMGRIDPANEHTNYAQKFQGRVTMTRDTSISTAYMELSRLTSDDTAVYYCARSYYYYNMDYWGQGTLVTVSS
VL: QIVLTQSPATLSVSPGERATLSCRASQSVSYMHWYQQKPGQAPRLLIYGVFRRATGIPDRFSGSGSGTDFTLTIGRLEPEDFAVYYCLQWSSDPPTFGQGTKLEIK
For B1, in assay [1], the Kd came out at 2.34 nM.

B2: Lodelcizumab Fab (Fab, INN chains, looked up, V domains shown)
VH: QVQLVQSGAEVKKPGASVKVSCKASGYTFSTMYMSWVRQAPGQGLEWMGRIDPANEHTNYAQKFQGRVTMTRDTSISTAYMELSRLTSDDTAVYYCARSYYYYNMDYWGQGTLVTVSS
VL: QIVLTQSPATLSVSPGERATLSCRASQSVSYMHWYQQKPGQAPRLLIYGVFRRATGIPDRFSGSGSGTDFTLTIGRLEPEDFAVYYCLQWSSDPPTFGQGTKLEIK
modifications: Fab
On to B2, for which the Kd in assay [2] amounted to 0.1 nM.

B3: Bococizumab Fab (Fab, INN chains, looked up, V domains shown)
VH: QVQLVQSGAEVKKPGASVKVSCKASGYTFTSYYMHWVRQAPGQGLEWMGEISPFGGRTNYNEKFKSRVTMTRDTSTSTVYMELSSLRSEDTAVYYCARERPLYASDLWGQGTTVTVSS
VL: DIQMTQSPSSLSASVGDRVTITCRASQGISSALAWYQQKPGKAPKLLIYSASYRYTGVPSRFSGSGSGTDFTFTISSLQPEDIATYYCQQRYSLWRTFGQGTKLEIK
modifications: Fab
Take B3: the Kd in assay [3] was 0.038 nM; in assay [2], 0.026 nM; in assay [4] it was 0.021 nM; in the assay with murine PCSK-9 (murine) it was 0.065 nM.
